Substitutions are numbered along the chain they refer to. Names may count otherwise. Each block holds one binder with its values, some of them ahead of it.
Experiments:
[1] = biological target: Human PD-1/PDCD1 Protein (PD-1) (human, UniProt Q15116 25-167, limits assumed); assay: SPR, Biacore 8K; PD-1 captured by anti-His antibody, antibody in flow
Description: The binding affinity of each antibody to human PD-1 was measured with Biacore 8K (Cytiva). Briefly, anti-His Tag antibody was immobilized by amine coupling using Amine Coupling Kit and His Capture Kit, onto 8 channels of a sensor chip (provided with 16 flow cells; one channel consisting of two flow cells) which had carboxymethyl dextran immobilized on a gold film. The immobilization was performed by feeding an activation solution (NHS and EDC mixed in equal amounts) at a flow rate of 10 μl/min for 7 minutes, an immobilization solution at a flow rate of 5 μl/min for 7 minutes, and 1 M ethanolamine hydrochloride-NaOH (pH 8.5) at a flow rate of 10 μl/min for 7 minutes. The buffer used at the time of immobilization was 1×HBS-EP+ Buffer. After the immobilization and before applying a sample, Human PD-1/PDCD1 Protein (PD-1) adjusted to 1 μg/ml with 1×HBS-EP+ Buffer was fed to one of the two flow cells of each channel in an amount of 20 μl at a flow rate of 10 μl/min to thereby capture PD-1 on the sensor chip. As regards the other flow cell, 1×HBS-EP+ Buffer was fed in the same manner to prepare a control flow cell. Each antibody was adjusted to 16 nM with 1×HBS-EP+ Buffer, and then subjected to 2-fold 7-step serial dilution using 1×HBS-EP+ Buffer. The resultant sample solution (30 μl) was fed to each flow cell at a flow rate of 10 μl/min and the response was measured. After subtracting the response of control flow cell from the response of the flow cell which was allowed to capture the ligand, KD value was calculated by curve fitting using Biacore 8K Evaluation Software.

[2] = biological target: human PD-1 (wild-type), expressed on cells (human, UniProt Q15116 25-288); assay: cell-based or functional assay
Sequence of human PD-1 (wild-type), expressed on cells (Q15116 25-288 limits assumed): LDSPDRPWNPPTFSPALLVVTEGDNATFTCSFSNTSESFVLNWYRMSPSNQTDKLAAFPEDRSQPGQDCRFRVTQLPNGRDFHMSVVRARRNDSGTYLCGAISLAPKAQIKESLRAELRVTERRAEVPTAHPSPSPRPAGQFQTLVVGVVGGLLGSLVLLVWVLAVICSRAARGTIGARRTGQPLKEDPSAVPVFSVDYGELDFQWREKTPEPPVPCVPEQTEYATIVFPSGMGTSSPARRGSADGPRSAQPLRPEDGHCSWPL

Sequence of Human PD-1/PDCD1 Protein (PD-1) (Q15116 25-167 limits assumed): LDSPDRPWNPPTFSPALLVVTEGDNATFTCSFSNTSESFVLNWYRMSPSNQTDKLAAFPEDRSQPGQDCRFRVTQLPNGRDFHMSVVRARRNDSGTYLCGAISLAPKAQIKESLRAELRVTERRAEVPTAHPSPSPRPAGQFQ

- Kd [1]: 0.232 nM
- Cell-cell contact assay [2]: 102 ng/mL
B1: HM297-G5 (antibody, human IgG1, V domains shown)
VH: QVQLVQSGPEVKKPGASVKIPCKASGYTFTDYNVDWVRQVPGQGLEWIGDIDPNNGGTIYNQKFKDKATLTVDKSTRTAYMELRSLRSDDTAVYYCARWRGAMDYWGQGTLVTVSS
VL: DIQMTQSPSSLSASVGDRVTITCRASQDIDNYLKWYQQKPDGTVKLLIYDTSRLHSGVPSRFSGSGSGTDYTLTISSLKQEDFATYYCQQGYTLPWTFGQGTKLEIK
notes: also called humanized HM297, VH ver.G / VL ver.5

- Kd [1]: 4.83 nM
- Cell-cell contact assay [2]: 150 ng/mL
B2: HM297-F6 (antibody, human IgG1, V domains shown)
VH: B1 VH with V40S, P41H, Q43K, G44S, K67R, A68V, L70M
VL: B1 VL with D41G, G42K, T43A, V44P, K79Q, Q80P
notes: also called humanized HM297, VH ver.F / VL ver.6

- Kd [1]: 3.48 nM
- Cell-cell contact assay [2]: 137 ng/mL
B3: HM297-I6 (antibody, human IgG1, V domains shown)
VH: B1 VH with I20V, P21V, I48M, K67R, A68V, L70M, K74T
VL: B1 VL with D41G, G42K, T43A, V44P, K79Q, Q80P
notes: also called humanized HM297, VH ver.I / VL ver.6

- Kd [1]: 0.563 nM
- Cell-cell contact assay [2]: 96.4 ng/mL
B4: humanized HM297-H5-IgG1-K322A (antibody, V domains shown)
VH: B1 VH with I48M, K67R, A68V, L70M
VL: DIQMTQSPSSLSASVGDRVTITCRASQDIDNYLKWYQQKPDGTVKLLIYDTSRLHSGVPSRFSGSGSGTDYTLTISSLKQEDFATYYCQQGYTLPWTFGQGTKLEIKR

- Kd [1]: 50.2 nM
- Cell-cell contact assay [2]: 78.6 ng/mL
B5: HM297-E5 (antibody, human IgG1, V domains shown)
VH: B1 VH with V11L, K12V, V40S, P41H, Q43K, G44S
VL: B1 VL
notes: also called humanized HM297, VH ver.E / VL ver.5

- Kd [1]: 1.86 nM
- Cell-cell contact assay [2]: 141 ng/mL
B6: HM297-H6 (antibody, human IgG1, V domains shown)
VH: B1 VH with I48M, K67R, A68V, L70M
VL: B1 VL with D41G, G42K, T43A, V44P, K79Q, Q80P
notes: also called humanized HM297, VH ver.H / VL ver.6

- Kd [1]: 0.451 nM
- Cell-cell contact assay [2]: 55.4 ng/mL
B7: HM297-G4 (antibody, human IgG1, V domains shown)
VH: B1 VH
VL: B1 VL with S7T, P8T
notes: also called humanized HM297, VH ver.G / VL ver.4

- Kd [1]: 2.2 nM
- Cell-cell contact assay [2]: 94.9 ng/mL
B8: HM297-I5 (antibody, human IgG1, V domains shown)
VH: B1 VH with I20V, P21V, I48M, K67R, A68V, L70M, K74T
VL: B1 VL
notes: also called humanized HM297, VH ver.I / VL ver.5

- Kd [1]: 24.1 nM
- Cell-cell contact assay [2]: 92.3 ng/mL
B9: HM297-F4 (antibody, human IgG1, V domains shown)
VH: B1 VH with V40S, P41H, Q43K, G44S, K67R, A68V, L70M
VL: B1 VL with S7T, P8T
notes: also called humanized HM297, VH ver.F / VL ver.4

- Kd [1]: 2.35 nM
- Cell-cell contact assay [2]: 98.9 ng/mL
B10: HM297-F5 (antibody, human IgG1, V domains shown)
VH: B1 VH with V40S, P41H, Q43K, G44S, K67R, A68V, L70M
VL: B1 VL
notes: also called humanized HM297, VH ver.F / VL ver.5

- Kd [1]: 0.221 nM
- Cell-cell contact assay [2]: 185 ng/mL
B11: HM297-H4 (antibody, human IgG1, V domains shown)
VH: B1 VH with I48M, K67R, A68V, L70M
VL: B1 VL with S7T, P8T
notes: also called humanized HM297, VH ver.H / VL ver.4

- Kd [1]: 0.129 nM
- Cell-cell contact assay [2]: 100 ng/mL
B12: HM297-E4 (antibody, human IgG1, V domains shown)
VH: B1 VH with V11L, K12V, V40S, P41H, Q43K, G44S
VL: B1 VL with S7T, P8T
notes: also called humanized HM297, VH ver.E / VL ver.4

- Kd [1]: 12.6 nM
- Cell-cell contact assay [2]: 65.4 ng/mL
B13: HM297-E6 (antibody, human IgG1, V domains shown)
VH: B1 VH with V11L, K12V, V40S, P41H, Q43K, G44S
VL: B1 VL with D41G, G42K, T43A, V44P, K79Q, Q80P
notes: also called humanized HM297, VH ver.E / VL ver.6

- Kd [1]: 1.89 nM
- Cell-cell contact assay [2]: 59.7 ng/mL
B14: HM297-G6 (antibody, human IgG1, V domains shown)
VH: B1 VH
VL: B1 VL with D41G, G42K, T43A, V44P, K79Q, Q80P
notes: also called humanized HM297, VH ver.G / VL ver.6

- Kd [1]: 4.84 nM
- Cell-cell contact assay [2]: 65.6 ng/mL
B15: HM297-I4 (antibody, human IgG1, V domains shown)
VH: B1 VH with I20V, P21V, I48M, K67R, A68V, L70M, K74T
VL: B1 VL with S7T, P8T
notes: also called humanized HM297, VH ver.I / VL ver.4
